Here are results for three molecules from patent publication US20200308288A1 (OSE IMMUNOTHERAPEUTICS, published 2020).

Where a chain is given by its changes, count along the chain named.

The term EC50 denotes the midpoint of the concentration-response curve. As a reminder, the EC50 (read off the curve) is the concentration at which the effect is half-maximal.

For experiment [1], the target named is T1, recombinant hCD127 (Sino Biologicals, reference 10975-H08H) (human, UniProt P16871 21-239).
T1 construct: also called rCD127; CD127 protein
T1 chain: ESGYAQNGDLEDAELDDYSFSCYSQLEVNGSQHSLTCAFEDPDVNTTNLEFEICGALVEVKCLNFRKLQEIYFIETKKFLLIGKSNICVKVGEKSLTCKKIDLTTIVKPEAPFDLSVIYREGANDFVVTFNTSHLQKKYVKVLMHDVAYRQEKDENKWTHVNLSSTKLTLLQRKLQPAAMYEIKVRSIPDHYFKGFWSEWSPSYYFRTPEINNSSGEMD
The experiment in a line: ELISA, recombinant hCD127 immobilised at 1 µg/ml, purified antibody. As to the method: The binding activity of the anti hCD127 antibody was assessed by ELISA (Enzyme-linked immunosorbent assay). For the ELISA assay, recombinant hCD127 (Sino Biologicals, Beijing, China; reference 10975-H08H) was immobilized on plastic at 1μg/ml and purified antibody were added to measure binding.
Background: In an ELISA, binding on a coated surface is turned into a signal by an enzyme label.

Experiment [2] addresses T1, recombinant hCD127 (Sino Biologicals, …). The experiment in a line: ELISA on immobilised recombinant hCD127 (1 µg/ml) after storage under different conditions. As to the method: Humanized Effi3 antibody (clone VH3VL4) was incubated at 4° C., 37° C., at −80° C. or at room Temperature for 28 days. The binding activity was tested by ELISA assay, recombinant hCD127 (Sino Biologicals, Beijing, China; reference 10975-H08H) was immobilized on plastic at 1 μg/ml and dilutions of supernatant were added to measure binding. […] Increase doses of Mabs were added to measure binding.

B1: MD707-3 (antibody, V domains shown)
VH: AVHLVESGGGLVQPKESLKISCAASGFTFSNAAMYWVRQAPGKGLEWVARIRTKANNYATYYAESVKGRFTISRDDSKSMVYLQMDNVKTDDTAMYYCIVVVLTTTRDYFDYWGQGVMVTVSS
VL: DIVLTQAPLSVSVTPGESASISCRSSQSLLTVKGITSLYWFLQKPGKSPQLLIYRMSNLASGVPDRFRGSGSETDFTLKISKVETEDVGVYYCAQFLEYPHTFGAGTKLELKR
notes: Rat anti-human CD127 antibody; also called MD707-3 chimeric antibody; MD707-3 mAb
For the molecule B1, in experiment [1], the EC50 turned out to be 3.4 ng/mL.

B2: Effi3-VH3VL4 (antibody, human IgG1, kappa, V domains shown)
VH: AVQLVESGGGLVQPGGSLKITCAASGFTFTNAAMYWVRQAPGKGLEWVARIRTKANNYATYYADSVKGRFTISRDDSKSTVYLQMDSVKTEDTATYYCIVVVLTTTRDYFDYWGQGVLVTVSS
VL: DIVLTQSPSSLPVTPGEPASISCRSSQDLLTVKGITSLYWFLQKPGQSPKLLIYRMSNRDSGVPDRFSGSGSGTDFTLKISRVEAEDVGTYYCAQFLEYPHTFGAGTKLELKR
notes: Humanized from rat MD707-3; also called Effi3 H3L4; VHvar3+VLvar4
On to B2, for which, in experiment [1], the EC50 was 4 ng/mL. In addition, the “EC50 (read off the curve)” value in experiment [2] is around 6 ng/mL.

B3: Effi3-VH3VL3 (antibody, human IgG1, kappa, V domains shown)
VH: B2 VH
VL: B2 VL with D28S, G73E
notes: Humanized from rat MD707-3; They are built here from the variable and constant entries so that the signal peptide is left out; also called Effi3 H3L3; VHvar3+VLvar3
In the case of B3, the concentration for a half-maximal effect (EC50) in experiment [1] came out at 4 ng/mL.
